This data set is described as follows: yeast display, Sf9 membrane polyspecificity reagent, FACS + sequencing; frameworks hold sequencing errors. Put shortly: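 Using colony PCR, genes from sorted yeast display clones were amplified, then sequenced on MiSeq at 2 × 250 and filtered by CDR length. The clones had been stained with 10% biotinylated, detergent-solubilized Sf9 membrane reagent for 1 hour at 4 °C and sorted by FACS into low and high (top ~1%) gates on anti-HA and streptavidin fluorescence. Polyreactivity labels come from the gate of origin.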
For “QVQLVESGGGLVQAGGSLRLSCAASGFIFSVNTMGWYRQAPGKERELVAAISSSSGRTYYADSVKGRFTISRDNAKNTVYLQMNSLKPEDTAVYYCAVLYRWFGAYETYDYLGQGTQVTVSS”, the “polyreactivity (PSR sort gate)” value is “high polyreactivity”.

Consider “QVQLVESGGGLVQAGGSLRLSCAASGFIFSWYAMGWYRQAPGKERELVAAISASGTSTYYADSVKGRFTISRDNAKNTVYLQMNSLKPEDTAVYYCAAEFVTEYLYGFVYEYDSWGQGTQVTVSS”, for which the “polyreactivity (PSR sort gate)” value is recorded as “low polyreactivity”.

As for “QVQLVESGGGLVQAGGSLRLSCAASGFIFSWYAMGWYRQAPGKERELVAAISKRGGSTYYADSVKGRFTISRDNAKNTVYLQMNSLKPEDTAVYYCAADRLPSGSLVEYWGQGTQVTVSS”, the “polyreactivity (PSR sort gate)” value is “high polyreactivity”.

Regarding “QVQLVESGGGLVQAGGSLRLSCAASGFIFSYYAMGLYRQAPGKERELVAAINWTGGSTYYADSVKGRFTISRDNAKNTVYLQMNSLKPEDTAVYYCAADSHLRGRSEDYWGQGTQVTVSS”, the “polyreactivity (PSR sort gate)” value is listed as “high polyreactivity”.

Turning to “QVQLVESGGGLVQAGGSLRLSCAASGFIFSYYAMGWYRQAPGKERELVAAISSSGSRTYYADSVKGRFTISRDNAKNTVYLQMNSLKPEDTAVYYCNARTTSGWGQGTQVTVSS”, the “polyreactivity (PSR sort gate)” value was “high polyreactivity”.

Turning to “QVQLVESGGGLVQAGGSLRLSCAASGFIFSYYAMGWYRQAPGKERELVAANSSSGGTTYADSVKGRFTISRDNAKNTVYLQMNSLKPEDTAVYYCARVQYWFYKPMYYWGQGTQVTVSS”, the “polyreactivity (PSR sort gate)” value is reported as “high polyreactivity”.

In the case of “QVQLVESGGGLVQAGGSLRLSCAASGFIFSYYAMGWYRQAPGKERELVADISRGGSTYYADSVKGRFTISRDNAKNTVYLQMNSLKPEDTAVYYCNAYIRYVVNGYRVYSFDYWGQGTQVTVSS”, the “polyreactivity (PSR sort gate)” value is on record as “high polyreactivity”.

Regarding “QVQLVESGGGLVQAGGSLRLSCAASGFIFSYYAMGWYRQAPRKERELVAAISKRGGGTYYADSVKGRFTISRDNAKNTVYLQMNSLKPEDTAVYYCNKDGGYGTGSSREYDSWGQGTQVTVSS”, the “polyreactivity (PSR sort gate)” value is “high polyreactivity”.

For “QVQLVESGGGLVQAGGSLRLSCAASGFIFTDYAMGWYIQAPGKERELVAGISGSGGRTYYADSVKGRFTISRDNAKNTVYLQMNSLKPEDTAVYYCAARGVPWLWYFRGMYWGQGTQVTVSS”, the “polyreactivity (PSR sort gate)” value is “high polyreactivity”.

Turning to “QVQLVESGGGLVQAGGSLRLSCAASGFIFTDYAMGWYRQAPGKEREFVAAIDWSGGNTYYADSVKGRFTISRDNAKNTVFLQMNSLKPEDSAVYYCAASGSAREYDYWGQGTQVTVSS”, the “polyreactivity (PSR sort gate)” value is “low polyreactivity”.

Regarding “QVQLVESGGGLVQAGGSLRLSCAASGFIFTFYAMGWYRQAPGKERELVAAISSSGGSTYYADSVKGRFTISRDNAKNTVYLQMNSLKPEDTAVYYCNAVRYHARSGWSDYWGQGTQVTVSS”, the “polyreactivity (PSR sort gate)” value is “high polyreactivity”.

As for “QVQLVESGGGLVQAGGSLRLSCAASGFIFTHNAMGWYRQAPGKERELVAAISRSGGRTYYADSVKGRFTISRDNAKNTVYLQMNSLKPEDTAVYYCAKDAYVYGMGYWGQGTQVTVSS”, the “polyreactivity (PSR sort gate)” value is reported as “high polyreactivity”.

As to “QVQLVESGGGLVQAGGSLRLSCAASGFIFTKNAIGWYRQAPGKERDLVDAISGTGGSTYYADSVKGRFTISRDNAKNTVYLKMNSLKPEDTAVYYCASRRYRLFSTGGQPGYYWGQGTQVTVSS”, the “polyreactivity (PSR sort gate)” value was “high polyreactivity”.

Consider “QVQLVESGGGLVQAGGSLRLSCAASGFIFTKYTMAWYRQAPGKERELVAAITGRGTSTSADSVKGRFTISRDNAKNTVYLQMNSLKPEDTAVYYCAAVGWFADFLFSDINGYYWGQGTQVTVSS”, for which the “polyreactivity (PSR sort gate)” value is given as “low polyreactivity”.

For the sequence “QVQLVESGGGLVQAGGSLRLSCAASGFIFTLYAMGWYRQAPGKESELVASISSGGSTNYADSVKGRFTISRDNAKNTVYFQMNSLKPEDTAVYYCAAYYYFKSDRFSGRYGRYYWGQGTQVTVSS”, the “polyreactivity (PSR sort gate)” value was “high polyreactivity”.

“QVQLVESGGGLVQAGGSLRLSCAASGFIFTLYTMGWYRPAPGKERELVAAIDKKGSTYYADSVKGRFTISRDNAKNTVYLQMNSLKPEDTAVYYCAADDRYRGNREDYWGQGTQVTVSS”: the “polyreactivity (PSR sort gate)” value was “low polyreactivity”.

“QVQLVESGGGLVQAGGSLRLSCAASGFIFTRYAMGWYRQAPGKERELVAAISASGGSTYYADSVKGRFTISRDNAKNTVYLQMNSLKPEDTAVYYCAAVPYRYTYDYWGQGTQVTVSS”: the “polyreactivity (PSR sort gate)” value was “high polyreactivity”.

On to “QVQLVESGGGLVQAGGSLRLSCAASGFIFTRYAMGWYRQAPGKERELVAAITRSGGRTYYADSVKGRFTISRDNAKNTVYLQMNSLKPEDTAVYYCAAEGSVGLYGLIMHYWGQGTQVTVSS”, for which the “polyreactivity (PSR sort gate)” value is “high polyreactivity”.

“QVQLVESGGGLVQAGGSLRLSCAASGFIFTSYAMGWYRQAPGKERELVAAISKRGGSTYYADSVKGRFTISRDNAKNTVYLQMNSLKPEDTAVYYCATRYPQPYSPGYTYDYWGLGTQVTVSS”: the “polyreactivity (PSR sort gate)” value is recorded as “high polyreactivity”.

For “QVQLVESGGGLVQAGGSLRLSCAASGFIFTVYAMGWSRQAPGKERELVAAISRGGGSTSYADSVKGRFTISRDNAKNTVYLQMNSLKPEDTAVYYCNAKYKYSRGYDYWGQGTQVTVSS”, the “polyreactivity (PSR sort gate)” value is “high polyreactivity”.

For the sequence “QVQLVESGGGLVQAGGSLRLSCAASGFIFTWYDMGWYRQAPGKERELVAAISRSGGSTYYADSVKGRFTISRDNAKNTVYLQMNSLKPEDTAVYYCIVYRSKKRYGWGEDDYWGQGSQVTVSS”, the “polyreactivity (PSR sort gate)” value was “high polyreactivity”.

As for “QVQLVESGGGLVQAGGSLRLSCAASGFIFTWYTMGWSRQAPGKERELVAAITSGGNTNYADSVKGRFTISRDNAKNTVYLQMNSLKPEDTSVYYCALGYLASRLKFAKYDYWGQGTQVNVSS”, the “polyreactivity (PSR sort gate)” value is given as “high polyreactivity”.

“QVQLVESGGGLVQAGGSLRLSCAASGFIFTYNDMGWYRQAPGKERELVASISWDGGRTYYADSVKRRFTISRDNAKNTVYLQMNSLKPEDTADYYWDKRLGGSPIQARGDYWGQCTQVTVSS”: the “polyreactivity (PSR sort gate)” value is listed as “low polyreactivity”.

For the sequence “QVQLVESGGGLVQAGGSLRLSCAASGFIFTYYAMGWYRQAPGKERELVAAIRRGGNTYYADSVKGRFTISRDNAKNTVYLQMNSLKPEDTAVYYCAASAGPRASYYYWGQGTQVTVSS”, the “polyreactivity (PSR sort gate)” value was “high polyreactivity”.

Turning to “QVQLVESGGGLVQAGGSLRLSCAASGFIFTYYAMGWYRQAPGKERELVAAISSSGGRTAYADSVKGRFTISRDNAKNTVYLQMNSLKPEDTAVYFCNARGTYRVANYDYWGQGTQVTVSS”, the “polyreactivity (PSR sort gate)” value is recorded as “high polyreactivity”.

Regarding “QVQLVESGGGLVQAGGSLRLSCAASGFIFVDYAMGWYRQAPGKERELVAAISSSGSTTYADSVKGRFTISRDNAKNIVYLQMNSLKPEDTAVYYCAAGLPRVLKDATFDYWGQGTQVTVSS”, the “polyreactivity (PSR sort gate)” value is “low polyreactivity”.

“QVQLVESGGGLVQAGGSLRLSCAASGFIFVDYDMGWYRQAPGKERELVAAITDSGTSTYYADSVKGRFTISRDNAKNTVYLQMNSLKPEDTAVYYCNTDVSPSFDYWGQGTQVTVSS”: the “polyreactivity (PSR sort gate)” value was “low polyreactivity”.

“QVQLVESGGGLVQAGGSLRLSCAASGFIFVGNAMGGYRQAPGKERELVAAITSTDNTTYADSVKGRFTISRDNAKNTVYLQMNSLKPEDTAVYYCNARGYPYLYGYDYWGQGTQVTVSS”: the “polyreactivity (PSR sort gate)” value is “low polyreactivity”.

Consider “QVQLVESGGGLVQAGGSLRLSCAASGFIFVLYSMGWYRQAPGKERELVAGITGSTDTYYADSVKGRFTISRDNAKNTVYLQMNSLKPEDTAVYYCAAGRLRIWYDSWGQGTQVTVSS”, for which the “polyreactivity (PSR sort gate)” value is reported as “low polyreactivity”.

In the case of “QVQLVESGGGLVQAGGSLRLSCAASGFIFVNKAMGWYRQAPGKERELVATISRGGSTNYADSVKGRFTISRDNAKNTVYLQMNSLKPEDTAVYYCNARRSVKVYGVDYWGQGTQVTVSS”, the “polyreactivity (PSR sort gate)” value is listed as “high polyreactivity”.

For the sequence “QVQLVESGGGLVQAGGSLRLSCAASGFIFVQNVMGWYRQAPGKERELVAAITWRGTSTYYADSVKGRFTISRDNAKNTVYLLMNSLKPEDTAVYDWNVDLQEDCEEYDYWGQGTQVTVSS”, the “polyreactivity (PSR sort gate)” value is recorded as “low polyreactivity”.

Turning to “QVQLVESGGGLVQAGGSLRLSCAASGFIFVQYAMGWYRQAPGKERELVAAISKGGGSTYYADSVKGRFTISRDNAKNTVYLQMNSLKPEDTAVYDCNADKVTRVTYWDDSWGQGTQVTVSS”, the “polyreactivity (PSR sort gate)” value was “high polyreactivity”.

“QVQLVESGGGLVQAGGSLRLSCAASGFIFVRYAMGWYRQAPGKERELVAAITKGGGRTYYADSVKGRFTISRDNAKNTVYLQMNSLKPEDTAVYYCATAGAHGRERDYWGQGTQVTVSS”: the “polyreactivity (PSR sort gate)” value is recorded as “high polyreactivity”.

On to “QVQLVESGGGLVQAGGSLRLSCAASGFIFVSKAMGWSRQAPGKERELVAAITTGGSTNYADSVKGRFTISRDNAKYTVYLLMNSLKPEDTAVYYCAADGRYSTYIYLHDYWGQGTQVTVSS”, for which the “polyreactivity (PSR sort gate)” value is “low polyreactivity”.

For “QVQLVESGGGLVQAGGSLRLSCAASGFIFVSYAMGWDRQAPGKERELVATITWGGGSTYYADSVKGRFTISRDNAKNTVYLQMNSLKPVDTAVYYCAADYPYSPIFDRYVEYEYWGQGTQVTVSS”, the “polyreactivity (PSR sort gate)” value is “low polyreactivity”.

Take “QVQLVESGGGLVQAGGSLRLSCAASGFIFVWYAMGWYRQAPGKEREMVAAISFSGSSTYYADSVKGRFTITRDNAKNTVYLQMNSLKPEDTAVYYCAKRIAKYIPRYKFDYWGQGTQVTVSS”: the “polyreactivity (PSR sort gate)” value is recorded as “high polyreactivity”.

On to “QVQLVESGGGLVQAGGSLRLSCAASGFIFVYNAMGWYRQAPGKERELVAVISSGGSTYYADSVKGRFTISRDNAKNTVYLQMNSLKPEDTAVYYCNKRRYDIKDEYDYWGQGTQVTVSS”, for which the “polyreactivity (PSR sort gate)” value is listed as “low polyreactivity”.

For “QVQLVESGGGLVQAGGSLRLSCAASGFIFWDNTMGWYRQAPGKERELVAAISGGDGTYYADSVKGRFTISRDNAKNTVYLQLNSLKPEDTAVYYCNAATAEVKLYGKYDYWGQGTQVTVSS”, the “polyreactivity (PSR sort gate)” value is “low polyreactivity”.

“QVQLVESGGGLVQAGGSLRLSCAASGFIFWDYAMGWNRQAPRKERELVAAISDSGGDTYYADSVKGRFTISRDNAKNTVYLQMNSLIPEDTAVYYCAADVVLWVFRGQQYDYWGQGTQVTVSS”: the “polyreactivity (PSR sort gate)” value was “low polyreactivity”.

Take “QVQLVESGGGLVQAGGSLRLSCAASGFIFWINAMGWYRQAPGKERELVAAITKNGGTTYYADSVKGRFTISRDNAKNTVYLLMNSLKPEDTAVYYCAAGGIGGDQEVEGPMNYWGQGTQVTVSS”: the “polyreactivity (PSR sort gate)” value is “low polyreactivity”.

In the case of “QVQLVESGGGLVQAGGSLRLSCAASGFIFWLNAMGWYRQAPGKERELVAAISIGGRTNYADSVKGRFTISRDNAKNTVYLQMNSLKPEDTAVYYCNKDYRSVYKGRGFDYWGQGTQVTVSS”, the “polyreactivity (PSR sort gate)” value is reported as “low polyreactivity”.

The values above are taken from the nanobody polyreactivity screen of Harvey et al. (2022).
